Experiments:
Test in all cases: EMSA
Conditions in all cases: EMSA: 0.5 uM dsDNA probe, semi-pure TF titrated, PBS + NP40, 10 uL; 6% polyacrylamide gel, 0.5x TBE, 100 V 1 h, room temperature running buffer; pH and …
[1] = system: BlaI_1845 (Clostridium thermocellum DSM 1313)
[2] = system: GntR_1482 (Clostridium thermocellum DSM 1313)
[3] = system: TetR_0692 (Clostridium thermocellum DSM 1313)
[4] = system: GlyR2 (Clostridium thermocellum DSM 1313)
[5] = system: Rex_2471 (Clostridium thermocellum DSM 1313)

## GACCATAACAATAGTCCAAGTTCATCT (double strand) [BlaI_1845 test oligo]
[1]
  binding signal (% probe shifted): > 70

## ACCCCTGATTATGACAACATGACAGTAACAATCCGG (double strand) [GntR_1482 test oligo]
[2]
  binding signal (% probe shifted): > 70

## TAAGCAGGGATATGACCACGTGGTCACCGTCCTCTG (double strand) [TetR_0692 test oligo]
[3]
  binding signal (% probe shifted): > 70

## TGATATGGGGTGTTTGCTGTTTTTGCC (double strand) [negative oligo 27 bp]
[3]
  binding signal (% probe shifted): < 10
[1]
  binding signal (% probe shifted): < 10
[4]
  binding signal (% probe shifted): < 10

## CAGGATGTAATGGCTTGTCGTCAGACCGGAG (double strand) [Rex_2471 negative oligo]
[5]
  binding signal (% probe shifted): < 10

## TAATTGGATCTTTGTTAATTGCAGTTTT (double strand) [GntR_1482 negative oligo]
[2]
  binding signal (% probe shifted): < 10

## ATTATTTTATTTTGTTATATTTTTAACAAAAAAATTATT (double strand) [Rex_2471 test oligo]
[5]
  binding signal (% probe shifted): > 70

## TATAGCACCGGTAACATTACAAATCATAGAAT (double strand) [GlyR2 test oligo]
[4]
  binding signal (% probe shifted): > 70

Reference: PMC8457756
